Test results published in US20240352111A1 (Regeneron, published 2024).
Like-named read-outs stand apart in the source and are kept apart here.

What was measured:
mArtemin-MMH [1] = target: T1, mArtemin-MMH (mouse); test: SPR Biacore T200, mArtemin-MMH captured by anti-myc mAb, mAb injected, 25 C
T1 chain: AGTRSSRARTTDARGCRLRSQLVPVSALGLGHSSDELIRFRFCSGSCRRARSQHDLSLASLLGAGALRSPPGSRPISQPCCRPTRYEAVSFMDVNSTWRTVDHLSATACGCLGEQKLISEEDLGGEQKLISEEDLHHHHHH
Description: (§1) The equilibrium dissociation constant (KD) for Artemin binding to each of Artemin monoclonal antibodies (mAbs) H4H33331P, H4H33335P, H4H33336P, and H4H33349P was determined using a real-time surface plasmon resonance Biacore T200 biosensor. All binding studies were performed in 10 mM HEPES, 150 mM NaCl, 3 mM EDTA, and 0.05% v/v Surfactant Tween-20, pH 7.4 (HBS-ET) running buffer at 25° C. The Biacore CM4 sensor chip surface was first derivatized by amine coupling with anti-myc mAb to capture hArtemin-MMH, MfArtemin-MMH, or mArtemin-MMH. Different concentrations of Artemin mAbs (60-2.2 nM, 3-fold serial dilution) prepared in […] running buffer were injected over the Artemin-captured surfaces for 3 min at a flow rate of 50 μL/min and their dissociation in HBS-ET running buffer was monitored for 5 minutes. At the end of each cycle, the Artemin-captured surfaces were regenerated using a 6 sec injection of 20 mM phosphoric acid.
(§2) The association rate (kₐ) and dissociation rate (kd) were determined by fitting the real-time binding sensorgrams to a 1:1 binding model with mass transport limitation using Scrubber 2.0c curve-fitting software. Binding dissociation equilibrium constant (KD) and dissociative half-life (t½) were calculated from the kinetic rates as: KD (M)=kd/kₐ, and t_{1/2} (min)=[In2/(60*kd)].

[2] = target: MfArtemin-MMH (cynomolgous monkey (Macaca fascicularis)); test: blocking ELISA, 400 pM mfARTN.mmh binding to plate-coated hGFRa3.hFc
hArtemin-MMH [3] = target: T2, hArtemin-MMH (human); test: blocking ELISA, 75 pM hARTN.mmh binding to plate-coated hGFRa3.hFc
T2 chain: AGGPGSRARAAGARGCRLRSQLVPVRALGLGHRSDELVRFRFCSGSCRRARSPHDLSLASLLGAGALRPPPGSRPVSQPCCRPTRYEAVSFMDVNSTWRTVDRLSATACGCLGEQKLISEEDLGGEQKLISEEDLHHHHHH

[4] = target: MfArtemin-MMH (cynomolgous monkey (Macaca fascicularis)); test: cell-based or functional assay
[5] = target: MfArtemin-MMH (cynomolgous monkey (Macaca fascicularis)); test: SPR Biacore T200, MfArtemin-MMH captured by anti-myc mAb, mAb injected, 25 C
mArtemin-MMH [6] = target: T1, mArtemin-MMH; test: blocking ELISA, 150 pM msARTN.mmh binding to plate-coated hGFRa3.hFc
mArtemin-MMH [7] = target: T1, mArtemin-MMH; test: cell-based or functional assay
hArtemin-MMH [8] = target: T2, hArtemin-MMH; test: cell-based or functional assay
hArtemin-MMH [9] = target: T2, hArtemin-MMH; test: SPR Biacore T200, hArtemin-MMH captured by anti-myc mAb, mAb injected, 25 C
Description: as §1, §2

mArtemin-MMH [10] = target: T1, mArtemin-MMH; test: BLI (Octet HTX), mAb captured on AHC tips, artemin at 30 nM, 25 C
Description: (§3) The entire experiment was performed at 25° C. in 10 mM HEPES, 150 mM NaCl, 3 mM EDTA, 0.02% NaN3 and 0.05% v/v Surfactant Tween-20, 1 mg/mL BSA, pH7.4 (HBS-EBT) buffer with the plate shaking at a speed of 1000 rpm. Different Artemin mAbs were first captured onto anti-human antibody (AHC) coated Octet biosensor tips (Fortebio Inc, #18-5064) by submerging the biosensor tips for 40 seconds in wells containing 2 μg/mL of Artemin mAb. […] All the Artemin and Artemin mAb samples were prepared in HBS-EBT buffer. The real-time binding response was monitored during the entire course of the experiment and the binding response at the end of every step was recorded.

hArtemin-MMH [11] = target: T2, hArtemin-MMH; test: as above
Description: as §3

MfArtemin-MMH [12] = target: T3, MfArtemin-MMH (cynomolgous monkey (Macaca fascicularis)); test: as above
T3 construct: also called mfARTN.mmh; mfARTN (A108-G22).mmh
T3 chain: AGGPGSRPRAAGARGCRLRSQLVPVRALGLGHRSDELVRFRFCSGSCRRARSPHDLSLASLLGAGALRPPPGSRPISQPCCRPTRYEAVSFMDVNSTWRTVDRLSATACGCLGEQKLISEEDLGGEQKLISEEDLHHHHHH
Description: as §3

mArtemin-MMH [13] = target: T1, mArtemin-MMH; test: BLI (Octet HTX), mAb captured on AHC tips, artemin at 15 nM, 25 C
Description: as §3

hArtemin-MMH [14] = target: T2, hArtemin-MMH; test: as above
Description: as §3

MfArtemin-MMH [15] = target: T3, MfArtemin-MMH; test: as above
Description: as §3

mArtemin-MMH [16] = target: T1, mArtemin-MMH; test: BLI (Octet HTX), mAb captured on AHC tips, artemin at 3.75 nM, 25 C
Description: as §3

hArtemin-MMH [17] = target: T2, hArtemin-MMH; test: as above
Description: as §3

MfArtemin-MMH [18] = target: T3, MfArtemin-MMH; test: as above
Description: as §3

mArtemin-MMH [19] = target: T1, mArtemin-MMH; test: blocking ELISA, antibody blocks 150 pM msARTN.mmh binding to plate-coated hGFRa3.hFc
Description: (§4) Experiments were carried out using the following procedures. Plates were coated with hGFRa3.hFc at 2 μg/ml in PBS on a 96-well microtiter plate at 4° C. overnight for all three assays. […] In other microtiter plates, a constant amount of either 75 pM hARTN.mmh, 400 pM mfARTN.mmh, or 150 pM msARTN.mmh were separately bound with anti-ARTN antibodies and an irrelevant IgG4 antibody control at a serial dilution series from 0.0017 nM to 100 nM in PBS+0.5% BSA. After a one-hour incubation, the mixture solutions were transferred to microtiter plates coated with hGFRa3.hFc. After one hour of incubation at RT, the wells were washed with PBST, and plate-bound ARTN was detected with an anti-penta-His antibody conjugated with horseradish peroxidase (HRP) (Qiagen). The plates were then developed using TMB substrate solution (BD Biosciences, #555214) according to manufacturer's recommendation and absorbance at 450 nm was measured on a Victor X5 plate reader.
(§5) Binding data were analyzed using a sigmoidal dose-response model within Prism™ software (GraphPad). […] If the calculated IC50 value was below the LLOA, less than LLOA was reported. Percent blocking at 100 nM antibody was calculated based on the background-corrected binding signal observed at the highest antibody concentration tested using the formula listed below and reported for all tested antibodies: […]

MfArtemin-MMH [20] = target: T3, MfArtemin-MMH; test: SPR Biacore T200, MfArtemin-MMH captured by anti-myc mAb, mAb injected, 25 C
Description: as §1, §2

MfArtemin-MMH [21] = target: T3, MfArtemin-MMH; test: blocking ELISA, antibody blocks 400 pM mfARTN.mmh binding to plate-coated hGFRa3.hFc
Description: as §4, §5

MfArtemin-MMH [22] = target: T3, MfArtemin-MMH; test: cell-based or functional assay
mArtemin-MMH [23] = target: T1, mArtemin-MMH; test: BLI (Octet HTX), mAb captured on AHC tips, artemin at 7.5 nM, 25 C
Description: as §3

hArtemin-MMH [24] = target: T2, hArtemin-MMH; test: as above
Description: as §3

MfArtemin-MMH [25] = target: T3, MfArtemin-MMH; test: as above
Description: as §3

hArtemin-MMH [26] = target: T2, hArtemin-MMH; test: blocking ELISA, antibody blocks 75 pM hARTN.mmh binding to plate-coated hGFRa3.hFc
Description: as §4, §5

Isotype Control mAb (antibody)
60 nM Artemin mAb Bound (RU) (mArtemin-MMH [1]): 0 RU | % Blocking with 100 nM Ab [2]: -28% | % Blocking with 100 nM Ab (hArtemin-MMH [3]): -3% | Max inhibition (%), SRE-luciferase reporter, 3 nM mfArtemin [4]: 10% | 60 nM Artemin mAb Bound (RU) [5]: 0 RU | % Blocking with 100 nM Ab (mArtemin-MMH [6]): -31% | Max inhibition (%), SRE-luciferase reporter, 1 nM mArtemin (mArtemin-MMH [7]): 1% | Max inhibition (%), SRE-luciferase reporter, 500 pM hArtemin (hArtemin-MMH [8]): 9% | 60 nM Artemin mAb Bound (RU) (hArtemin-MMH [9]): 0 RU

B1: H4H33335P (antibody, human IgG4 S228P, kappa, V domains shown)
VH: EVQLVESGGGLVQPGGSLRLSCAASGFTFSSYDMHWVRQATGKGLEWVSTIDTAGDTYYPGSVKGRFTISRENAKNSLYLQMNSLRAGDTAVYYCARDGELELQGYFDLWGRGTLVTVSS
VL: DIQMTQSPSSLSASVGDRVTITCRASQIISIYLNWYQQKPGKAPKLLIYAASSLQSGVPSRFSGSGSGTDFTLTISSLQPEDFATYYCQQSYTTPLTFGGGTKVEIKR
notes: Fully human antibody; also called Artemin mAb; anti-ARTN antibody
Artemin Binding Response (nm) (mArtemin-MMH [10]): 0.08 nm | Artemin Binding Response (nm) (hArtemin-MMH [11]): 0.11 nm | Artemin Binding Response (nm) (MfArtemin-MMH [12]): 0.09 nm | 60 nM Artemin mAb Bound (RU) (mArtemin-MMH [1]): 3 RU | Artemin Binding Response (nm) (mArtemin-MMH [13]): 0.07 nm | Artemin Binding Response (nm) (hArtemin-MMH [14]): 0.11 nm | Artemin Binding Response (nm) (MfArtemin-MMH [15]): 0.04 nm | Artemin Binding Response (nm) (mArtemin-MMH [16]): 0.02 nm | Artemin Binding Response (nm) (hArtemin-MMH [17]): 0.02 nm | Artemin Binding Response (nm) (MfArtemin-MMH [18]): 0 nm | % Blocking with 100 nM Ab (mArtemin-MMH [19]): 63% | IC50 (mArtemin-MMH [19]): 0.0876 nM | 60 nM Artemin mAb Bound (RU) (MfArtemin-MMH [20]): 3 RU | % Blocking with 100 nM Ab (MfArtemin-MMH [21]): 71% | IC50 (MfArtemin-MMH [21]): 0.233 nM | Max inhibition (%), SRE-luciferase reporter, 1 nM mArtemin (mArtemin-MMH [7]): 95% | Max inhibition (%), SRE-luciferase reporter, 500 pM hArtemin (hArtemin-MMH [8]): 100% | Max inhibition (%), SRE-luciferase reporter, 3 nM mfArtemin (MfArtemin-MMH [22]): 100% | Artemin Binding Response (nm) (mArtemin-MMH [23]): 0.05 nm | Artemin Binding Response (nm) (hArtemin-MMH [24]): 0.07 nm | Artemin Binding Response (nm) (MfArtemin-MMH [25]): 0 nm | % Blocking with 100 nM Ab (hArtemin-MMH [26]): 65% | IC50 (hArtemin-MMH [26]): 0.505 nM | 60 nM Artemin mAb Bound (RU) (hArtemin-MMH [9]): 4 RU | Kd (hArtemin-MMH [9]): 2.22 nM | koff (hArtemin-MMH [9]): 0.00019 s⁻¹ | kon (hArtemin-MMH [9]): 85300 M⁻¹ s⁻¹ | t½ (hArtemin-MMH [9]): 1.02 h
